What was measured:
Format in all cases: cell-based
STAT3 = experiment: Western blotting, phosphorylation of STAT3 in human iPS cells; details: feeder conditions, 6 days, negative control (bFGF) = 1
Protocol: The human iPS cells were cultured under feeder conditions in the same manner as in Example 8, and the feeder cells were removed 6 days after the start of the culture. Then, in the same manner as in Example 3, the cultured human iPS cells were washed, suspended, homogenized, and centrifuged to collect the supernatant as a cell extract. Thereafter, a target protein was detected by Western blotting in the same manner as in Example 3, except that the above supernatant was used. Furthermore, as a negative control, the target protein was detected by carrying out the same procedures except that bFGF was added instead of the CCL2.
Then, the ratio of the phosphorylated STAT3 to the non-phosphorylated STAT3 (pSTAT3/STAT3) was determined. Assuming that the value of pSTAT3/STAT3 in the negative control was “1”, the relative value was calculated.

human iPS cells [1] = experiment: EB formation and spontaneous differentiation, cell morphology; details: third day from the plating; iPS cells precultured 6 days with the substance
Protocol: Human iPS cells were cultured for 6 days under feeder conditions in the same manner as in Example 7. Thereafter, embryonic bodies (EBs) were produced. EB formation is known as a spontaneous differentiation-inducing method for inducing the differentiation of iPS cells. Specifically, first, a ROCK inhibitor (Y-27632, WAKO) was added to the culture solution being used for the culture of the human iPS cells so that the concentration thereof was […], and the human iPS cells were cultured for 1 hour under the conditions of 37° C. and 5% CO2. Then, the feeder cells used for the culture were dissociated with a human ES/iPS cell dissociation solution (CTK solution), and the human iPS cells were collected. Then, 1×10^6 of the human iPS cells were seeded in an ultra-low adhesion culture vessel, and cultured for 6 days in an EB preparation medium (DMEM/F12, Knockout SR, L-glutamine, NEAA (non-essential amino acid (GIBCO)), 2-ME, Pen/Strep). The medium was replaced every two days.
Next, spontaneous differentiation was induced. Specifically, the produced EBs were seeded in gelatin coated dishes so that each gelatin coated dish contained one EB. Each EB was cultured for 14 days in a medium (DMEM) containing 20% FBS, and then observed with a microscope. The medium was replaced every two days. The photographs in FIG. 18 show the cell morphology on the third day from the plating.

human iPS cells [2] = experiment: differentiation of EBs to myocardial cells, morphology and Tropomyosin immunostaining; details: 10th day from the plating; CCL2(+)/LIF(+) or CCL2(-)/bFGF(+) 5 ng/ml
From the text: It has been reported that, in general, according to the spontaneous differentiation-inducing method used in the above item (1), differentiation into myocardial cells is more liable to occur. Thus, regarding the cells on the 10th day from the plating in the above item (1), differentiation into myocardial cells was examined.
The morphology of the cells was examined with a microscope. Furthermore, they were immunostained with a Tropomyosin, which is a marker for myocardial cells. Also, culture of the cells, observation of the morphology, and staining were carried out in the same manner as in the above using a medium to which bFGF (5 ng/ml) has been added instead of the CCL2 and LIF.
The photographs in FIG. 19 show the morphologies of the cells on the 10th day from the plating of EB. […] Furthermore, in FIGS. 19A and 19B, the photographs on the left show the cell morphologies, and the photographs on the right show the stained cells. In the black and white photographs of FIG. 19, the stained portions are seen as light gray.

human iPS cells [3] = experiment: culture of human iPS cells in feeder free media, EB plating, cell adhesion
From the text: As undifferentiated cells, the same human iPS cells as used in Example 7 were used. As CCL2, the mouse recombinant CCL2 used in the item (1) of Example 2 was used. As feeder free media, the following three kinds of media were provided by adding or not adding the CCL2, LIF and bFGF to the medium for human stem cells used in Example 8. Specifically, the media used were as follows: the medium with CCL2 not added (−)/LIF not added (−)/bFGF added (+); the medium with CCL2 added (+)/LIF not added (−)/bFGF not added (−); and the medium with CCL2 added (+)/LIF added (+)/bFGF not added (−). In each medium, the concentration of the LIF was set to 50 units/ml, the concentration of the CCL2 was set to 500 ng/ml, and the concentration of the bFGF was set to 5 ng/ml. Then, the human iPS cells were cultured for 6 days using each medium, and EBs were produced. Thereafter, the thus-produced EBs were seeded in gelatin coated dishes so that each gelatin coated dish contained one EB, and cultured for 5 days in a medium (DMEM) containing 20% FBS.
The photographs in FIG. 20 show the cell morphologies of the EBs on the 5th day from the plating.

human iPS cells [4] = experiment: qRT-PCR of undifferentiated marker genes, feeder free versus feeder culture of human iPS cells; details: feeder free with CCL2 and LIF, no bFGF, relative to feeder conditions with bFGF
Protocol: Specifically, human iPS cells were cultured under feeder conditions where bFGF was added and the CCL2 was not added, and under feeder free conditions where bFGF was not added and the CCL2 and LIF were added. Total RNAs then were extracted, and the expressions of undifferentiated marker genes were examined by the qRT-PCR. The culture under the feeder conditions was carried out in the same manner as in Example 8. The culture under the feeder free conditions was carried out in the same manner as in Example 12. Then, assuming that the expression level under the feeder condition was 1, the relative value with respect to this value was calculated as the fold change in expression level under the feeder free conditions.
FIG. 21 is a graph showing the fold changes in the expression of the undifferentiated marker genes in the human iPS cells. The vertical axis indicates the fold change (-fold), and the horizontal axis indicates the examined undifferentiated marker genes. The open bars show the results obtained under the feeder free conditions, and the solid bars show the results obtained under the feeder conditions.

B1: CCL2: mouse recombinant CCL2 (MCP-1, #479-JE-010, R&D Systems); in Examples 1, 3, 4(1), 5 mouse CCL2 (SEQ ID NO: 3) overexpressed from Ccl2 expression vector (protein, listed as Mus musculus)
chain: MQVPVMLLGLLFTVAGWSIHVLAQPDAVNAPLTCCYSFTSKMIPMSRLESYKRITSSRCPKEAVVFVTKLKREVCADPKKEWVQTYIKNLDRNQMRSEPTTLFKTASALRSSAPLNVKLTRKSEANASTTFSTTTSSTSVGVTSVTVN
STAT3
  ratio of phosphorylated STAT3 to non-phosphorylated STAT3 (pSTAT3/STAT3), relative value: about 7.5 fold
Human iPS cells [1]
  morphology of EB after spontaneous differentiation-inducing culture: ES cell-like morphology
Human iPS cells [2]
  cell morphology of EBs, differentiation into myocardial cells: most of them exhibited myocardial cell-like morphology
  staining with Tropomyosin (marker for myocardial cells): entirely stained red
Human iPS cells [3]; CCL2 500 ng/ml + LIF 50 units/ml, bFGF not added
  cell adhesion: observed
Human iPS cells [3]; CCL2 500 ng/ml + LIF 50 units/ml, bFGF not added, culture for 5 days
  colony growth: observed
Human iPS cells [3]; LIF not added, CCL2 500 ng/ml alone or bFGF 5 ng/ml alone
  cell adhesion: observed
Human iPS cells [4]
  expressions of the undifferentiated marker genes, fold change: comparable
